# Experimental data from patent publication US20260137799A1, “ANTI-MUC1* ANTIBODY DRUG COMPLEXES AND USES THEREOF” (Minerva Biotechnologies Corporation, priority 2023, published 2026).
# B1: 3C2B1: anti-MUC1* monoclonal antibody that bound to the PSMGFR peptide (antibody, V domains shown)
# VH: EVMLVESGGGLVKPGGSLKLSCAASGITFSTYTMSWVRQTPEKRLEWVATISTGGDKTYYSDSVKGRFTISRDNAKNNLYLQMSSLRSEDTALYYCARGTTAMYYYAMDYWGQGTSVTVSS
# VL: DIVLTQSPASLAVSLGQRATISCRASKSISTSDYNYIHWYQQKPGQPPKLLIYLASNLESGVPARFSGSGSGTDFTLNIHPVEEEDAATYYCQHSRELPLTFGAGTKLELK
# How the values were obtained:
# [1] = test system: OE19 esophageal cancer cells; test: Antibody internalization (pHrodo Deep Red), OE19; assay type: cell-based
# Experimental: (§1) Internalization of antibody 3C2B1 into HPAFII pancreatic cancer cells (FIGS. 5A-5G) and OE19 esophageal cancer cells (FIGS. 5H-5N) was detectable after 8 hours and nearly complete at 16 hours. The results are quantified in FIG. 5O.
# (§2) Antibodies C2 and 3C2B1 were coupled to a pH sensitive fluorophore using the pHrodo Deep Red TFP Ester kit (Thermo cat #P35356), according to manufacturer instructions. Cancer cells were seeded at ˜50,000 cells/well onto μ-Slide 8-well tissue culture-treated, chambered coverslip wells (Ibidi 80806) in their recommended media with 10% FBS. Cells were cultured for 48 hours. Slides were transferred into microscope chamber (37° C.—5% CO2) and equilibrated for ˜30 minutes. The pHrodo Deep Red coupled antibody was then diluted to a concentration of 200 to 300 μg/mL into pre-warmed media supplemented with 10% FBS. Media was removed from the chamber slides and the diluted antibodies were separately added. […]
# (§3) Internalization of the fluorescently labeled antibodies was quantified as follows. […] The integrated pixel density (mean gray-scale value×area) was then measured by the ImageJ software. Positively-stained cells were manually counted and the integrated pixel density was divided by the number of positive cells to yield “Pixel Intensity per positive cell”.
# T47D-MUC1*45 cells = test: Antibody internalization (pHrodo Deep Red), T47D-MUC1*45; assay type: cell-based, human
# Experimental: Antibodies C2 and 3C2B1 were tested for their ability to be internalized by T47D breast cancer cells (T47D-wt) or T47D cells that were engineered to express high levels of a recombinant MUC1* polypeptide with a 45 amino acid extracellular domain (T47D-MUC1*45), as described in WO2010042562 and WO2010042891. […] C2 internalization was detected within 2.5 hours in T47D-wt cells (FIGS. 3A-3F) and was increased by MUC1*45 expression (FIGS. 3G-3L). […] Unexpectedly, MUC1*45 expression inhibited 3C2B1 internalization (FIG. 3S-3X).
# Antibodies C2 and 3C2B1 were coupled to a pH sensitive fluorophore using the pHrodo Deep Red TFP Ester kit (Thermo cat #P35356), according to manufacturer instructions. Cancer cells were seeded at ˜50,000 cells/well onto μ-Slide 8-well tissue culture-treated, chambered coverslip wells (Ibidi 80806) in their recommended media with 10% FBS. Cells were cultured for 48 hours. Slides were transferred into microscope chamber (37° C.—5% CO2) and equilibrated for ˜30 minutes. […]
# as §3
# lung cancer specimens = test: IHC of tissue microarray, lung cancer; assay type: binding, human; conditions: 108 specimens, antibodies at 15 μg/mL
# Excerpt: Tissue microarrays are typically made up of hundreds of tissue specimens, where each specimen in the array comes from a different patient. The breast cancer array contained patient specimens of all types of invasive breast cancers, including less common forms such as carcinomas with medullary features and papillary carcinomas. The lung cancer array contained specimens from patients diagnosed with squamous cell carcinoma, adenocarcinoma, mucinous adenocarcinoma, adenosquamous carcinoma and large cell carcinoma. The pancreatic cancer tissue microarray contained specimens from patients with ductal adenocarcinomas.
# Of the 108 lung cancer specimens, a total of 61 stained positive with C2, 3C2B1, or both. […] The converse, C2 staining better than 3C2B1, was true in only 5 of the 108 specimens, and these specimens stained weakly with both antibodies. A total of 37 specimens were stained essentially the same with 3C2B1 and C2 antibody.
# Cancerous tissue arrays were purchased from Tissue Array (Derwood, MD). After deparaffinization, antigen retrieval (pH 6.0) was performed for 10 min. The sections incubated in blocking buffer (10% normal goat serum and 5% BSA in TBS) at room temperature for 1 hr before incubating in either C2 or 3C2B1 in 1% BSA-TBS overnight at 4° C. In this particular assay, both antibodies were used at a concentration of 15 μg/mL. […]
# H1975-MUC1*45 cells = test: Antibody internalization (pHrodo Deep Red), H1975-MUC1*45; assay type: cell-based, human
# Experimental: Antibodies C2 and 3C2B1 were tested for their ability to be internalized by H1975 lung cancer cells (H1975-wt) and H1975 cells that were engineered to express high levels of a recombinant MUC1* polypeptide with a 45 amino acid extracellular domain (H1975-MUC1*45). In contrast to the T47D breast cancer cells, H1975-wt cells internalized 3C2B1 faster than they internalized C2 (FIGS. 4A1-4A28, 4C1-4C28 and 4E). Two (2) hours post incubation with H1975-wt cells, […] the cells had internalized C2. […] Similar to the T47D cells, MUC1*45 expression increased the internalization rate of C2 and decreased the internalization rate of 3C2B1 (FIGS. 4B1-4B28, 4D1-4D28 and 4E).
# Antibodies C2 and 3C2B1 were coupled to a pH sensitive fluorophore using the pHrodo Deep Red TFP Ester kit (Thermo cat #P35356), according to manufacturer instructions. Cancer cells were seeded at ˜50,000 cells/well onto μ-Slide 8-well tissue culture-treated, chambered coverslip wells (Ibidi 80806) in their recommended media with 10% FBS. Cells were cultured for 48 hours. Slides were transferred into microscope chamber (37° C.—5% CO2) and equilibrated for ˜30 minutes. The pHrodo Deep Red coupled antibody was then diluted to a concentration of 200 to 300 μg/mL into pre-warmed media supplemented with 10% FBS. Media was removed from the chamber slides and the diluted antibodies were separately added. Fluorescent (655 nm) and phase contrast images at were collected every 10 min for 12h or 16 h with a Leica Thunder Live Cell 3D microscope.
# Internalization of the fluorescently labeled antibodies was quantified as follows. Images were imported into ImageJ. The selection tool was used to draw a region of interest (ROI) on the image. The integrated pixel density (mean gray-scale value×area) was then measured by the ImageJ software. Positively-stained cells were manually counted and the integrated pixel density was divided by the number of positive cells to yield “Pixel Intensity per positive cell”.
# [2] = biological target: PSMGFR peptide (SEQ ID NO: 1) (Homo sapiens, UniProt P15941); test: ELISA binding to PSMGFR peptide
# Excerpt: MUC1* is a cancer-specific antigen produced by proteolytic cleavage of the extracellular domain of MUC1. The extracellular domain of MUC1* comprises about 45 amino acids. Monoclonal antibodies generated against the PSMGFR peptide (SEQ ID NO: 1) bind to MUC1*, as described in WO 2020/146902.
# Cancer selective anti-MUC1* antibodies bind to a membrane proximal conformational epitope within the MUC1* extracellular domain, as described in WO 2020/146902.
# The 3C2B1 epitope was mapped more precisely with additional PSMGFR peptide variants (FIGS. 2A, 2B).
# [3] = test system: HPAFII pancreatic cancer cells; test: Antibody internalization (pHrodo Deep Red), HPAFII; assay type: cell-based, human
# Experimental: as §1, §2, §3
# PSMGFR peptide (SEQ ID NO: 1), sequence (P15941 1110-1154): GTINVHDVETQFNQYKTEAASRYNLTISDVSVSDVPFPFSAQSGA
molecule,measurement,setting,value
B1,time after which internalization was detectable,[1],8 h
same,time at which internalization was nearly complete,[1],16 h
same,effect of MUC1*45 expression on internalization,T47D-MUC1*45 cells; T47D-MUC1*45 vs T47D-wt,inhibited
same,fraction of cells that internalized detectable antibody,"T47D-MUC1*45 cells; T47D-MUC1* cells, after 14 hours",Less than half
same,3C2B1 > C2 (number of specimens stained better with 3C2B1),lung cancer specimens,19
same,time by which essentially all the cells had internalized the antibody,H1975-MUC1*45 cells; H1975-MUC1*45 cells,8 h
same,effect of MUC1*45 expression on internalization rate,H1975-MUC1*45 cells; H1975-MUC1*45 vs H1975-wt,decreased
same,binding to the PSMGFR 45mer peptide,[2],bind
same,time after which internalization was detectable,[3],8 h
same,time at which internalization was nearly complete,[3],16 h
